In publication PMC5832849 one finds relative affinity (concentration data, which are given here for one substance.

In this test the target is scFvD8 mutant (scFvD8-M), L96Tyr to Ser and H98Asp to Ser (mouse). The test can be described thus: ELISA; competitive: scFv at 0.5 nM pre-incubated with preS1 recombinant protein (1000 to 0.01 nM in PBST) at 37 °C for 1 h, then added to plates coated with 100 nM preS1, room temperature 30 min; detected with HRP-labelled anti-SUMO antibody; relative affinity. A general note: In an ELISA, binding on a coated surface is turned into a signal by an enzyme label.
Sequence of scFvD8 mutant (scFvD8-M), L96Tyr to Ser and H98Asp to Ser (mouse) (heavy, as listed by the source, chain 1 of 2): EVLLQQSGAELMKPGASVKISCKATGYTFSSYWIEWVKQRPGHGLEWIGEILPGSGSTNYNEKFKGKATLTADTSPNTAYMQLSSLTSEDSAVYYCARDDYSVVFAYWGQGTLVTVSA
Sequence of scFvD8 mutant (scFvD8-M), L96Tyr to Ser and H98Asp to Ser (mouse) (light, as listed by the source, chain 2 of 2): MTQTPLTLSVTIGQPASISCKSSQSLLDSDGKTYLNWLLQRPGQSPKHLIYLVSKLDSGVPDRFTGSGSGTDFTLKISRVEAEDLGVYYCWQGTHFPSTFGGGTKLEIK

Regarding “HBV preS1 recombinant protein (domain or fragment)”, the relative affinity (concentration at 50% protein binding saturation) came out at 5 nM.
